This passage reports EC50 results from patent CN110156894A (JIANGSU NUOMAIBO BIOMEDICAL TECH CO LTD, dated 2019).

Assay [1] concerns the target T1, 重组TEM8蛋白(义翘神州) (human, UniProt Q9H6X2 33-321, limits assumed).
T1 construct: also called TEM8重组蛋白; recombinant TEM8 protein (Sino Biological)
T1 sequence (looked up): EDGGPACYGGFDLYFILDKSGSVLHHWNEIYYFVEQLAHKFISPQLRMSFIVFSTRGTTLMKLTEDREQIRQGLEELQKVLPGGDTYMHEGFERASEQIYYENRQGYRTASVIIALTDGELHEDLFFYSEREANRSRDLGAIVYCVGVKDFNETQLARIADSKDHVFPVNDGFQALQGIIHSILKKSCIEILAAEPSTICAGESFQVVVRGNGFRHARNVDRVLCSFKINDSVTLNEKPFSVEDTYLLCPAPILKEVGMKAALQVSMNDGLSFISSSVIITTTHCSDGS
As to the kind of experiment: ELISA, antibody on plate-bound TEM8 protein, anti-human IgG-HRP, OD450. In general terms: In an ELISA, binding on a coated surface is turned into a signal by an enzyme label.

In assay [2] the target is T2, TEM8 on TEM8过表达细胞 (UniProt Q9H6X2 33-564, limits assumed).
T2 construct: whole, on cells; One molecule is used for cell-surface TEM8 on both cell lines; the cell line is named under assay; also called TEM8稳定过表达细胞株 (CHO-K1); TEM8过表细胞
As to the kind of experiment: cell-based assay on TEM8 overexpressing cells, anti-human-IgG-Eu fluorescence.

For assay [3], the target named is T1, 重组TEM8蛋白(义翘神州). As to the kind of experiment: ELISA on plate-bound TEM8 protein, method as in Example 2.
Assay [4] has as its target T2, TEM8 on TEM8过表达细胞. As to the kind of experiment: cell-based ELISA on HCT116/TEM8 cells.

B1: HUT104 (antibody, human IgG1, kappa, V domains shown)
VH: EVQLQESGPGLVKPSETLSLTCTVTGDSISSDYWNWVRQAPGQRLEWMGYISYSGNTYTNPSLKSRITINRDTSKNQFSLQLNSVTPEDTAVYYCARYKTITSAFDVWGQGTTVTVSS
VL: EIVMTQSPATLSVSPGERATLSCRASQNIRDFLHWYQQKPGQAPRLLIYYASQSISGIPARFSGSGSGTDFTLTISSLEPEDFAVYYCQNGHSFPYTFGGGTKVEIKR
notes: also called TEM8抗体HUT104; 单克隆抗体HUT104
In general, EC50 refers to the midpoint of the concentration-response curve. High values mean weaker potency, low ones greater potency. Turning to B1, the EC50 was 0.00317 µg/mL with 重组TEM8蛋白(义翘神州) [1], 0.105 µg/mL with TEM8 on TEM8过表达细胞 [2], 0.00176 µg/mL with 重组TEM8蛋白(义翘神州) [3] and 0.128 µg/mL in the assay with TEM8 on TEM8过表达细胞 [4].

B2: HUT103 (antibody, human IgG1, kappa, V domains shown)
VH: EVQLQESGPGLVKPSETLSLTCTVTGDSISSDYWNWVRQAPGQRLEWMGYISYSGNTYTNPSLKSRITINRDTSKNQFSLQLNSVTPEDTAVYYCARYKTITSVLDVWGQGTTVTVSS
VL: EIVMTQSPATLSVSPGERATLSCRASQNIRDFLHWYQQKPGQAPRLLIYYASQSISGIPARFSGSGSGTDFTLTISSLEPEDFAVYYCQNGHSFPYTFGGGTKVEIKR
notes: also called TEM8抗体; 单克隆抗体HUT103
In the case of B2, the values for the EC50 with 重组TEM8蛋白(义翘神州) [1] and with TEM8 on TEM8过表达细胞 [2] were 0.00453 µg/mL and 0.13 µg/mL, respectively.

B3: HUT105 (antibody, human IgG1, kappa, V domains shown)
VH: EVQLQESGPGLVKPSETLSLTCTVTGDSISSDYWNWVRQAPGQRLEWMGYISYSGNTYTNPSLKSRITINRDTSKNQFSLQLNSVTPEDTAVYYCARYKTITSMFDVWGQGTTVTVSS
VL: EIVMTQSPATLSVSPGERATLSCRASQNIRDFLHWYQQKPGQAPRLLIYYASQSISGIPARFSGSGSGTDFTLTISSLEPEDFAVYYCQNGHSFPYTFGGGTKVEIKR
notes: also called TEM8抗体; 单克隆抗体HUT105
For B3, the EC50 amounted to 0.00357 µg/mL with 重组TEM8蛋白(义翘神州) [1] and 0.113 µg/mL in the assay with TEM8 on TEM8过表达细胞 [2].
